Source: article PMC12881857, “The MabZIP5–MaMYB69 module cooperates with MaERF55 to modulate banana fruit ripening via cell wall degradation”
Changes are numbered by the printed parent chain.

Assays:
[1] = target: T1, GST-MaMYB69 (banana, UniProt A0A804IQI7 1-348); experiment: EMSA; Chemiluminescent EMSA Kit (Beyotime); buffer, salt, pH and temperature not stated; settings: protein: recombinant, tags: GST (N-term, pGEX-4T-1), blunt
T1 sequence: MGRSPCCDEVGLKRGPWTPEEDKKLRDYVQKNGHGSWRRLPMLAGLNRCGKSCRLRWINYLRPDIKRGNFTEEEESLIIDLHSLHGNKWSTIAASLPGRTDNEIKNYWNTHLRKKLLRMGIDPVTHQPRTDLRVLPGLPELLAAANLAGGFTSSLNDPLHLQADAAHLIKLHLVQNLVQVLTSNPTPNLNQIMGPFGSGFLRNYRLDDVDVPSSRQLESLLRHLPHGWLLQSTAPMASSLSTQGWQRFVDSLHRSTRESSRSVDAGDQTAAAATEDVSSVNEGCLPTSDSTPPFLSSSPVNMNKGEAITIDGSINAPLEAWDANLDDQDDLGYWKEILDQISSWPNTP

[2] = target: T1, GST-MaMYB69; experiment: competition; 50-fold excess mutant competitor vs N3; Chemiluminescent EMSA Kit (Beyotime); buffer, salt, pH and temperature not stated; settings: protein: recombinant; tags: GST (N-term, pGEX-4T-1); blunt
[3] = target: T1, GST-MaMYB69; experiment: competition; 50-fold excess mutant competitor vs N1; Chemiluminescent EMSA Kit (Beyotime); buffer, salt, pH and temperature not stated; settings: protein: recombinant; tags: GST (N-term, pGEX-4T-1); blunt
[4] = target: T1, GST-MaMYB69; experiment: competition; 50-fold excess mutant competitor vs N9; Chemiluminescent EMSA Kit (Beyotime); buffer, salt, pH and temperature not stated; settings: protein: recombinant; tags: GST (N-term, pGEX-4T-1); blunt
[5] = target: T1, GST-MaMYB69; experiment: competition; 50-fold excess mutant competitor vs N5; Chemiluminescent EMSA Kit (Beyotime); buffer, salt, pH and temperature not stated; settings: protein: recombinant; tags: GST (N-term, pGEX-4T-1); blunt
[6] = target: T1, GST-MaMYB69; experiment: competition; 50-fold excess mutant competitor vs N7; Chemiluminescent EMSA Kit (Beyotime); buffer, salt, pH and temperature not stated; settings: protein: recombinant; tags: GST (N-term, pGEX-4T-1); blunt

B1: MaACO1 promoter probe (dsDNA)
DNA 1: ATTGCTTTCTTGTGGCCACCAACCGGAGAAAGGGAGTCTA
DNA 2: TAGACTCCCTTTCTCCGGTTGGTGGCCACAAGAAAGCAAT
binding result [1]: binds

B2: MaPG3 promoter probe (dsDNA)
DNA 1: AGGCATCCAACAACTTTCTCCACCAACCTTGCTTGCATAC
DNA 2: GTATGCAAGCAAGGTTGGTGGAGAAAGTTGTTGGATGCCT
binding result ([1]; label: biotin): binds

B3: MaPL1 mutant probe (dsDNA)
DNA 1: TCCTGCATCTTGGACGAGAAAAAAGTACCCAAAGAGGACG
DNA 2: CGTCCTCTTTGGGTACTTTTTTCTCGTCCAAGATGCAGGA
binding result [2]: no binding

B4: MaPE promoter probe (dsDNA)
DNA 1: GTGTCGATGGTGAAGTGTTTGGAGAAGTAGGAGCGGCAGC
DNA 2: GCTGCCGCTCCTACTTCTCCAAACACTTCACCATCGACAC
binding result ([1]; label: biotin): binds

B5: MaPE mutant probe (dsDNA)
DNA 1: B4 DNA 1 with G6A, T8A, G9A, G10A, T11A
DNA 2: B4 DNA 2 with A30T, C31T, C32T, A33T, C35T
binding result [3]: no binding

B6: MaMYB69 mutant probe (dsDNA)
DNA 1: AGGTGCCATGCCGCACTTTTTTAAAAAATCTGCCCTTTTG
DNA 2: CAAAAGGGCAGATTTTTTAAAAAAGTGCGGCATGGCACCT
binding result [4]: no binding

B7: MaPL1 promoter probe (dsDNA)
DNA 1: TCCTGCATCTTGGACGAGTTTGGTGTACCCAAAGAGGACG
DNA 2: CGTCCTCTTTGGGTACACCAAACTCGTCCAAGATGCAGGA
binding result ([1]; label: biotin): binds

B8: MaGAL mutant probe (dsDNA)
DNA 1: GTAGGGAGTTTTTTTTGCTTGTGTGTGAAAAAAAGATAAA
DNA 2: TTTATCTTTTTTTCACACACAAGCAAAAAAAACTCCCTAC
binding result [5]: no binding

B9: MaPG3 mutant probe (dsDNA)
DNA 1: AGGCATCCAACAACTTTCTCCTTTTTTCTTGCTTGCATAC
DNA 2: GTATGCAAGCAAGAAAAAAGGAGAAAGTTGTTGGATGCCT
binding result [6]: no binding

B10: MaMYB69 promoter probe (dsDNA)
DNA 1: AGGTGCCATGCCGCACACCTAAACCTCTTCTGCCCTTTTG
DNA 2: CAAAAGGGCAGAAGAGGTTTAGGTGTGCGGCATGGCACCT
binding result ([1]; label: biotin): binds

B11: MaGAL promoter probe (dsDNA)
DNA 1: GTAGGGAGACCAAATTGCTTGTGTGTGTTTGGTAGATAAA
DNA 2: TTTATCTACCAAACACACACAAGCAATTTGGTCTCCCTAC
binding result ([1]; label: biotin): binds
